For this test, the target named is His-importin α (human, UniProt P52292 1-529). Put plainly: ELISA; solid phase binding assay: Maxisorp microtiter plates coated with 25 ng of Tpr or C-Tpr; increasing concentrations of the soluble protein; bound protein detected with primary antibodies and horseradish peroxidase-conjugated secondary antibodies (TMB); apparent Kd from B = Bmax x Y/(Kd + Y); CRM1, NES and RanGTP at equimolar concentrations. The conditions noted are these: both partners purified. Background: An ELISA detects its analyte on a solid surface through an enzyme-linked reagent.

B1: C-terminal domain of Tpr (C-Tpr, residues 1626-2348) (domain or fragment)
chain: EQRDEPQEPSNKVPEQQRQITLKTTPASGERGIASTSDPPTANIKPTPVVSTPSKVTAAAMAGNKSTPRASIRPMVTPATVTNPTTTPTATVMPTTQVESQEAMQSEGPVEHVPVFGSTSGSVRSTSPNVQPSISQPILTVQQQTQATAFVQPTQQSHPQIEPANQELSSNIVEVVQSSPVERPSTSTAVFGTVSATPSSSLPKRTREEEEDSTIEASDQVSDDTVEMPLPKKLKSVTPVGTEEEVMAEESTDGEVETQVYNQDSQDSIGEGVTQGDYTPMEDSEETSQSLQIDLGPLQSDQQTTTSSQDGQGKGDDVIVIDSDDEEEDDDENDGEHEDYEEDEEDDDDDEDDTGMGDEGEDSNEGTGSADGNDGYEADDAEGGDGTDPGTETEESMGGGEGNHRAADSQNSGEGNTGAAESSFSQEVSREQQPSSASERQAPRAPQSPRRPPHPLPPRLTIHAPPQELGPPVQRIQMTRRQSVGRGLQLTPGIGGMQQHFFDDEDRTVPSTPTLVVPHRTDGFAEAIHSPQVAGVPRFRFGPPEDMPQTSSSHSDLGQLASQGGLGMYETPLFLAHEEESGGRSVPTTPLQVAAPVTVFTESTTSDASEHASQSVPMVTTSTGTLSTTNETATGDDGDEVFVEAESEGISSEAGLEIDSQQEEEPVQASDESDLPSTSQDPPSSSSVDTSSSQPKPFRRVRLQTTLRQGVRGRQFNRQRGVS
On to B1, for which the Kd stood at 21.5 nM.

The values above are taken from paper PMC2770460, “Karyopherin binding interactions and nuclear import mechanism of nuclear pore complex protein Tpr” (BMC Cell Biology, 2009).
